# Results: article PMC6363788, “Crystal structures of human lysosomal EPDR1 reveal homology with the superfamily of bacterial lipoprotein transporters” (Communications Biology, 2019)
# Target: the molecule itself
# Test: SEC; in solution; the only column and buffer told are those of the purification step (Superdex200 16/60, 10 mM Tris-HCl pH 8.0, 100 mM NaCl)
protein,measurement,value
"Human EPDR1 (ependymin-related protein 1), glycosylated (natural protein, UniProt Q9UM22-1 38-224, looked up, N-glycan at Asn130; disulfide bonds C42/C172, C113/C210, C88/C222, EPDR1 (MERP-1; UCC1), human, Uniprot Q9UM22, residues 38-224; The N-terminal tag of the PB-T-PAF plasmid (secretion signal, protein A tag, thrombin site) was removed with thrombin; The six C-terminal histidines have no stated cleavage site, and the protein went through a second Ni2+ step after thrombin, so they were probably kept; also called MERP-1; UCC1; not shown: protein A, N-terminal, cleaved) APRPCQAPQQWEGRQVMYQQSSGRNSRALLSYDGLNQRVRVLDERKALIPCKRLFEYILLYKDGVMFQIDQATKQCSKMTLTQPWDPLDIPQNSTFEDQYSIGGPQEQITVQEWSDRKSARSYETWIGIYTVKDCYPVQETFTINYSVILSTRFFDIQLGIKDPSVFTPPSTCQMAQLEKMSEDCSW",stoichiometry N,2
